In patent US20150050213A1, “COMPOSITIONS AND METHODS FOR IMAGING INFLAMMATION OF TRAUMATIC BRAIN INJURY” (University of Virginia Patent Foundation, priority 2013, published 2015):

Columns and labels:
infiltrating neutrophils [1] = assay: neutrophil co-localization immunohistochemistry after CCI TBI; format: in vivo; conditions: CCI TBI rats, 12 hours post-injury
Procedure: Neutrophil co-localization: Rats underwent CCI injury as described above and were immediately injected with cFLFLF-PEG-Cy5 through a tail vein catheter. Animals were sacrificed 12 hours post-injection and perfused with 200 cc of a 10% sucrose wash and 200 cc of 4% paraformaldehyde. After four hours, animals were perfused with a 30% sucrose cryoprotectant. Brains were then removed and sectioned at a thickness of […]. Sections were incubated in rabbit anti-rat neutrophil elastase (abcam 21595) at a dilution of 1:200 overnight at 4° C. Next, sections were washed three times in PBS and then incubated in alexa fluor 488 goat anti-rabbit antibody at a 1:200 dilution at room temperature for two hours. Sections were washed three times in PBS. Vectashield mounting medium with DAPI was applied to each section with a cover slip. Slides were assessed with a Zeiss Axioimager Z1 microscope equipped with the Apotome module. Photomicrographs were acquired using the Zeiss Zen 2011 software (FIG. 2).

FPR = target: T1, FPR (Homo sapiens, UniProt P21462); conditions: human neutrophils; Locke et al. 2009; cited from earlier work
T1 construct: endogenous in cells; host or cells: human neutrophils
T1 sequence (P21462 1-350): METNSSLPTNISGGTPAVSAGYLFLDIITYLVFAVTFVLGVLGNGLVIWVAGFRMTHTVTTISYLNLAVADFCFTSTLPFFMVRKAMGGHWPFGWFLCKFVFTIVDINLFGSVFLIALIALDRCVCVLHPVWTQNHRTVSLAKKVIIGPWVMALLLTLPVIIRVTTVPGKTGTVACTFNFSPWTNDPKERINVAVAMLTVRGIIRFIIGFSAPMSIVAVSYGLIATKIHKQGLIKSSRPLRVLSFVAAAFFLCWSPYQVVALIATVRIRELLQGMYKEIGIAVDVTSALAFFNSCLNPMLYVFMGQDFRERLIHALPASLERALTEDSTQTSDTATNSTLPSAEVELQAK

[2] = target: T2, neutrophil N-formylpeptide receptor (Homo sapiens, UniProt P21462); conditions: reported in the literature; cited from earlier work
T2 sequence (P21462 1-350): T1 sequence (P21462 1-350)

[3] = reported; poor imaging quality due to lipophilicity; cited from earlier work
infiltrating neutrophils [4] = test system: infiltrating neutrophils; parameters: species or system Sprague-Dawley rats; conditions: rat, in vivo
Procedure: Sprague-Dawley rats (N=3/experimental group) underwent moderate-severe experimental controlled cortical impact (CCI) trauma brain injury (TBI) or SHAM preparation. Animals were sacrificed 12, 24, or 48 hours post-injury, a tail vein catheter was inserted 12 hr prior to sacrifice, and each animal received a 2 mCi dose of cFLFLF-PEG-^64Cu. Radiopharmaceutical was allowed to circulate for 12 hrs prior to sacrifice. Brains were removed and unfixed, […] frozen sections were collected on a Leica CM3050S cryostat. Sections were collected onto slides and placed on radiosensitive FujiFilm SR imaging plates for 12 hours. Each screen was read with a GE Typhoon FLA9000 phosphor imager at a pixel size of […]. Average intensity values from seven ROIs (FIG. 5B-5G) were measured from 20 brain sections that included the entirety of the contusion volume. Values were normalized to the corrected dose of radiation and animal body weight. Average intensity values of each ROI were compared to the contralateral anatomical region in each of the SHAM, 12, 24 hour, and 48 hour experimental groups. Phosphor imaging is a standard technique for determining whether a labeled ligand is suitable for PET imaging and positive results are an indicator that the labeled ligand is indeed useful for PET imaging.

[5] = target: T3, neutrophil receptor (formyl peptide receptor, FPR) (Homo sapiens, UniProt P21462); conditions: human neutrophils; Zhang et al. 2007; cited from earlier work
T3 construct: endogenous in cells; host or cells: human neutrophils
T3 sequence (P21462 1-350): T1 sequence (P21462 1-350)

neutrophils = conditions: superoxide stimulation assays; Locke et al.; cited from earlier work
[6] = mouse, in vivo; cited from earlier work

cinnamoyl-F(D)LF(D)LFK-polyethylene glycol [cFLFLF-PEG]
co-localization with neutrophil markers (infiltrating neutrophils [1]): localizes to infiltrating neutrophils within brain parenchyma

cF(D)LF(D)LF [cFLFLF]
Kd (FPR): 2 nM
affinity for the neutrophil N-formylpeptide receptor [2]: high affinity
liver uptake [3]: high liver uptake

cinnamoyl-F(D)LF(D)LFK-polyethylene glycol-DOTA-64Cu [cFLFLF-PEG-^64Cu]
post-injury time point of most prominent uptake (infiltrating neutrophils [4]): 12 h
time of statistically significant peak uptake, ratio ipsilateral to contralateral, caudate and putamen (infiltrating neutrophils [4]): 12 h
time of statistically significant peak uptake, ratio ipsilateral to contralateral, corpus callosum (infiltrating neutrophils [4]): 12 h
time of statistically significant peak uptake, ratio ipsilateral to contralateral, cortex (infiltrating neutrophils [4]): 12 and 24 hour
time of statistically significant peak uptake, ratio ipsilateral to contralateral, hemisphere (infiltrating neutrophils [4]): 12 h
time of statistically significant peak uptake, ratio ipsilateral to contralateral, hippocampus (infiltrating neutrophils [4]): 12 h
uptake within cerebrospinal fluid (CSF) in the ventricles (infiltrating neutrophils [4]): intense uptake
Kd [5]: 5.7 nM
Kd (FPR): 17.7 nM
biologic activity toward neutrophils (neutrophils): no biologic activity toward neutrophils
mean biologic half-life [6]: 55±8 min
